Source: patent US20150344540A1, “NOVEL GLP-1 RECEPTOR AGONISTS WITH CHOLESTEROL EFFLUX ACTIVITY” (NOVO NORDISK A/S, priority 2012, published 2015)
Residue numbers refer to the chain shown, from its start. Where no end group is shown, it is not given here. [ ]: non-standard residue; d: D form. Aib = CC(C)(N)C(=O)O

B1: [Aib8,Glu23,Val25,Aib36,Lys37]-des-Lys34-GLP-1-(7-37)-peptidyl-Glu-Phe-Leu amide (peptide)
peptide: H[Aib]EGTFTSDVSSYLEGEAVKEFIAWLVG[Aib]KEFL-NH2
modifications: N-terminus assumed
SMILES: CC[C@H](C)[C@H](NC(=O)[C@H](Cc1ccccc1)NC(=O)[C@H](CCC(=O)O)NC(=O)[C@H](CCCCN)NC(=O)[C@@H](NC(=O)[C@H](C)NC(=O)[C@H](CCC(=O)O)NC(=O)CNC(=O)[C@H](CCC(=O)O)NC(=O)[C@H](CC(C)C)NC(=O)[C@H](Cc1ccc(O)cc1)NC(=O)[C@H](CO)NC(=O)[C@H](CO)NC(=O)[C@@H](NC(=O)[C@H](CC(=O)O)NC(=O)[C@H](CO)NC(=O)[C@@H](NC(=O)[C@H](Cc1ccccc1)NC(=O)[C@@H](NC(=O)CNC(=O)[C@H](CCC(=O)O)NC(=O)C(C)(C)NC(=O)[C@@H](N)Cc1c[nH]cn1)[C@@H](C)O)[C@@H](C)O)C(C)C)C(C)C)C(=O)N[C@@H](C)C(=O)N[C@@H](Cc1c[nH]c2ccccc12)C(=O)N[C@@H](CC(C)C)C(=O)N[C@H](C(=O)NCC(=O)NC(C)(C)C(=O)N[C@@H](CCCCN)C(=O)N[C@@H](CCC(=O)O)C(=O)N[C@@H](Cc1ccccc1)C(=O)N[C@@H](CC(C)C)C(N)=O)C(C)C
B2: [Aib8,Glu23,Val25,Glu34,Lys35,Aib36,Lys37]-GLP-1-(7-37)-peptide amide (peptide)
peptide: H[Aib]EGTFTSDVSSYLEGEAVKEFIAWLVEK[Aib]K-NH2
modifications: N-terminus assumed
SMILES: CC[C@H](C)[C@H](NC(=O)[C@H](Cc1ccccc1)NC(=O)[C@H](CCC(=O)O)NC(=O)[C@H](CCCCN)NC(=O)[C@@H](NC(=O)[C@H](C)NC(=O)[C@H](CCC(=O)O)NC(=O)CNC(=O)[C@H](CCC(=O)O)NC(=O)[C@H](CC(C)C)NC(=O)[C@H](Cc1ccc(O)cc1)NC(=O)[C@H](CO)NC(=O)[C@H](CO)NC(=O)[C@@H](NC(=O)[C@H](CC(=O)O)NC(=O)[C@H](CO)NC(=O)[C@@H](NC(=O)[C@H](Cc1ccccc1)NC(=O)[C@@H](NC(=O)CNC(=O)[C@H](CCC(=O)O)NC(=O)C(C)(C)NC(=O)[C@@H](N)Cc1c[nH]cn1)[C@@H](C)O)[C@@H](C)O)C(C)C)C(C)C)C(=O)N[C@@H](C)C(=O)N[C@@H](Cc1c[nH]c2ccccc12)C(=O)N[C@@H](CC(C)C)C(=O)N[C@H](C(=O)N[C@@H](CCC(=O)O)C(=O)N[C@@H](CCCCN)C(=O)NC(C)(C)C(=O)N[C@@H](CCCCN)C(N)=O)C(C)C
B3: [Glu22,Glu23,Val25,Glu34,Lys35,Val36,Lys37]-GLP-1-(7-37)-peptidyl-Glu-Phe amide (peptide)
peptide: HAEGTFTSDVSSYLEEEAVKEFIAWLVEKVKEF-NH2
B4: [Aib8,Glu23,Val25,Glu34,Lys35,Val36,Lys37]-GLP-1-(7-37)-peptidyl-Glu-Phe-Phe amide (peptide)
peptide: H[Aib]EGTFTSDVSSYLEGEAVKEFIAWLVEKVKEFF-NH2
modifications: N-terminus assumed
SMILES: CC[C@H](C)[C@H](NC(=O)[C@H](Cc1ccccc1)NC(=O)[C@H](CCC(=O)O)NC(=O)[C@H](CCCCN)NC(=O)[C@@H](NC(=O)[C@H](C)NC(=O)[C@H](CCC(=O)O)NC(=O)CNC(=O)[C@H](CCC(=O)O)NC(=O)[C@H](CC(C)C)NC(=O)[C@H](Cc1ccc(O)cc1)NC(=O)[C@H](CO)NC(=O)[C@H](CO)NC(=O)[C@@H](NC(=O)[C@H](CC(=O)O)NC(=O)[C@H](CO)NC(=O)[C@@H](NC(=O)[C@H](Cc1ccccc1)NC(=O)[C@@H](NC(=O)CNC(=O)[C@H](CCC(=O)O)NC(=O)C(C)(C)NC(=O)[C@@H](N)Cc1c[nH]cn1)[C@@H](C)O)[C@@H](C)O)C(C)C)C(C)C)C(=O)N[C@@H](C)C(=O)N[C@@H](Cc1c[nH]c2ccccc12)C(=O)N[C@@H](CC(C)C)C(=O)N[C@H](C(=O)N[C@@H](CCC(=O)O)C(=O)N[C@@H](CCCCN)C(=O)N[C@H](C(=O)N[C@@H](CCCCN)C(=O)N[C@@H](CCC(=O)O)C(=O)N[C@@H](Cc1ccccc1)C(=O)N[C@@H](Cc1ccccc1)C(N)=O)C(C)C)C(C)C
B5: [Aib8,Glu23,Val25,Glu34,Lys35,Val36,Lys37]-GLP-1-(7-37)-peptidyl-Glu-Val-Leu amide (peptide)
peptide: H[Aib]EGTFTSDVSSYLEGEAVKEFIAWLVEKVKEVL-NH2
modifications: N-terminus assumed
SMILES: CC[C@H](C)[C@H](NC(=O)[C@H](Cc1ccccc1)NC(=O)[C@H](CCC(=O)O)NC(=O)[C@H](CCCCN)NC(=O)[C@@H](NC(=O)[C@H](C)NC(=O)[C@H](CCC(=O)O)NC(=O)CNC(=O)[C@H](CCC(=O)O)NC(=O)[C@H](CC(C)C)NC(=O)[C@H](Cc1ccc(O)cc1)NC(=O)[C@H](CO)NC(=O)[C@H](CO)NC(=O)[C@@H](NC(=O)[C@H](CC(=O)O)NC(=O)[C@H](CO)NC(=O)[C@@H](NC(=O)[C@H](Cc1ccccc1)NC(=O)[C@@H](NC(=O)CNC(=O)[C@H](CCC(=O)O)NC(=O)C(C)(C)NC(=O)[C@@H](N)Cc1c[nH]cn1)[C@@H](C)O)[C@@H](C)O)C(C)C)C(C)C)C(=O)N[C@@H](C)C(=O)N[C@@H](Cc1c[nH]c2ccccc12)C(=O)N[C@@H](CC(C)C)C(=O)N[C@H](C(=O)N[C@@H](CCC(=O)O)C(=O)N[C@@H](CCCCN)C(=O)N[C@H](C(=O)N[C@@H](CCCCN)C(=O)N[C@@H](CCC(=O)O)C(=O)N[C@H](C(=O)N[C@@H](CC(C)C)C(N)=O)C(C)C)C(C)C)C(C)C
B6: [Glu34,Lys35,Val36,Lys37]-GLP-1-(7-37)-peptidyl-Glu-Phe-Tyr amide (peptide)
peptide: HAEGTFTSDVSSYLEGQAAKEFIAWLVEKVKEFY-NH2
B7: [Aib8,Glu22,Glu23,Val25,Glu34,Lys35,Val36,Lys37]-GLP-1-(7-37)-peptidyl-Glu-Phe-Leu amide (peptide)
peptide: H[Aib]EGTFTSDVSSYLEEEAVKEFIAWLVEKVKEFL-NH2
modifications: N-terminus assumed
SMILES: CC[C@H](C)[C@H](NC(=O)[C@H](Cc1ccccc1)NC(=O)[C@H](CCC(=O)O)NC(=O)[C@H](CCCCN)NC(=O)[C@@H](NC(=O)[C@H](C)NC(=O)[C@H](CCC(=O)O)NC(=O)[C@H](CCC(=O)O)NC(=O)[C@H](CCC(=O)O)NC(=O)[C@H](CC(C)C)NC(=O)[C@H](Cc1ccc(O)cc1)NC(=O)[C@H](CO)NC(=O)[C@H](CO)NC(=O)[C@@H](NC(=O)[C@H](CC(=O)O)NC(=O)[C@H](CO)NC(=O)[C@@H](NC(=O)[C@H](Cc1ccccc1)NC(=O)[C@@H](NC(=O)CNC(=O)[C@H](CCC(=O)O)NC(=O)C(C)(C)NC(=O)[C@@H](N)Cc1c[nH]cn1)[C@@H](C)O)[C@@H](C)O)C(C)C)C(C)C)C(=O)N[C@@H](C)C(=O)N[C@@H](Cc1c[nH]c2ccccc12)C(=O)N[C@@H](CC(C)C)C(=O)N[C@H](C(=O)N[C@@H](CCC(=O)O)C(=O)N[C@@H](CCCCN)C(=O)N[C@H](C(=O)N[C@@H](CCCCN)C(=O)N[C@@H](CCC(=O)O)C(=O)N[C@@H](Cc1ccccc1)C(=O)N[C@@H](CC(C)C)C(N)=O)C(C)C)C(C)C
B8: [Glu22,Glu23,Val25,Glu34,Lys35,Val36,Lys37]-GLP-1-(7-37)-peptidyl-Glu-Phe-Leu amide (peptide)
peptide: HAEGTFTSDVSSYLEEEAVKEFIAWLVEKVKEFL-NH2
B9: [Gly8,Glu22,Glu23,Val25,Glu34,Lys35,Val36,Lys37]-GLP-1-(7-37)-peptidyl-Glu-Phe amide (peptide)
peptide: HGEGTFTSDVSSYLEEEAVKEFIAWLVEKVKEF-NH2
B10: [Aib8,Glu22,Glu23,Val25,Glu34,Lys35,Val36,Lys37]-GLP-1-(7-37)-peptidyl-Glu-Phe amide (peptide)
peptide: H[Aib]EGTFTSDVSSYLEEEAVKEFIAWLVEKVKEF-NH2
B11: [Glu34,Lys35,Val36,Lys37]-GLP-1-(7-37)-peptidyl-Glu-Phe amide (peptide)
peptide: HAEGTFTSDVSSYLEGQAAKEFIAWLVEKVKEF-NH2
B12: [Glu23,Val25,Glu34,Lys35,Val36,Lys37]-GLP-1-(7-37)-peptidyl-Glu-Phe-Leu-Glu-Lys (peptide)
peptide: HAEGTFTSDVSSYLEGEAVKEFIAWLVEKVKEFLEK
B13: [Glu34,Lys35,Val36,Lys37]-GLP-1-(7-37)-peptidyl-Glu-Phe-Leu-Asp-Lys (peptide)
peptide: B12 peptide with E17Q, V19A, E35D
B14: [Glu34,Lys35,Val36,Lys37]-GLP-1-(7-37)-peptidyl-Glu-Phe-Leu-Glu-Lys (peptide)
peptide: B12 peptide with E17Q, V19A
B15: [Glu34,Lys35,Val36,Lys37]-GLP-1-(7-37)-peptidyl-Glu-Phe-Leu-Glu-Arg (peptide)
peptide: B12 peptide with E17Q, V19A, K36R
B16: [Glu34,Val36,Lys37]-GLP-1-(7-37)-peptidyl-Glu-Phe-Leu-Glu-Lys (peptide)
peptide: B12 peptide with E17Q, V19A, K29G
B17: [Aib8,Glu23,Val25,Glu34,Lys35,Val36,Lys37]-GLP-1-(7-37)-peptidyl-Glu-Leu-Leu amide (peptide)
peptide: H[Aib]EGTFTSDVSSYLEGEAVKEFIAWLVEKVKELL-NH2
modifications: N-terminus assumed
SMILES: CC[C@H](C)[C@H](NC(=O)[C@H](Cc1ccccc1)NC(=O)[C@H](CCC(=O)O)NC(=O)[C@H](CCCCN)NC(=O)[C@@H](NC(=O)[C@H](C)NC(=O)[C@H](CCC(=O)O)NC(=O)CNC(=O)[C@H](CCC(=O)O)NC(=O)[C@H](CC(C)C)NC(=O)[C@H](Cc1ccc(O)cc1)NC(=O)[C@H](CO)NC(=O)[C@H](CO)NC(=O)[C@@H](NC(=O)[C@H](CC(=O)O)NC(=O)[C@H](CO)NC(=O)[C@@H](NC(=O)[C@H](Cc1ccccc1)NC(=O)[C@@H](NC(=O)CNC(=O)[C@H](CCC(=O)O)NC(=O)C(C)(C)NC(=O)[C@@H](N)Cc1c[nH]cn1)[C@@H](C)O)[C@@H](C)O)C(C)C)C(C)C)C(=O)N[C@@H](C)C(=O)N[C@@H](Cc1c[nH]c2ccccc12)C(=O)N[C@@H](CC(C)C)C(=O)N[C@H](C(=O)N[C@@H](CCC(=O)O)C(=O)N[C@@H](CCCCN)C(=O)N[C@H](C(=O)N[C@@H](CCCCN)C(=O)N[C@@H](CCC(=O)O)C(=O)N[C@@H](CC(C)C)C(=O)N[C@@H](CC(C)C)C(N)=O)C(C)C)C(C)C
B18: [Glu34,Lys35,Val36]-GLP-1-(7-37)-peptidyl-Glu-Phe-Leu-Glu-Lys (peptide)
peptide: H-HAEGTFTSDVSSYLEGQAAKEFIAWLVEKVGEFLEK
B19: [Gly8,Glu22,Glu23,Val25,Glu34,Lys35,Val36,Lys37]-GLP-1-(7-37)-peptidyl-Glu-Phe-Leu amide (peptide)
peptide: HGEGTFTSDVSSYLEEEAVKEFIAWLVEKVKEFL-NH2

Molecular target: human GLP-1 receptor (human, UniProt P43220)
Assay: cell-based or functional assay

Binder | CRE luciferase EC50, 0% HSA [nM] | CRE luciferase EC50, 1% HSA [nM]
B1 | 0.01 | 0.004
B2 | 0.015 | 0.004
B3 | 0.02 | 0.01
B4 | 0.525 | 0.372
B5 | 0.198 | 0.065
B6 | 0.037 | 0.014
B7 | 0.116 | 0.034
B8 | 0.299 | 0.114
B9 | 0.104 | 0.027
B10 | 0.029 | 0.012
B11 | 0.016 | 0.005
B12 | 0.098 | 0.031
B13 | 0.045 | 0.012
B14 | 0.03 | 0.011
B15 | 0.034 | 0.011
B16 | 0.085 | 0.023
B17 | 0.489 | 0.303
B18 | 0.041 | 0.013
B19 | 0.974 | 0.302
